“And” between values parts separate entries of the source, which are not always exact repeats. Equal values may be shown once.
What was measured:
[1] = Optimum pH and optimum temperature for sialyltransferase enzyme activity; type: biochemical; details: purified enzyme
Description: The optimum pH and the optimum temperature of the recombinant β-galactoside-α2,6-sialyltransferase SHIZ119-N1C0 derived from the JT-SHIZ-119 strain were investigated using the purified enzyme prepared in Example 3.
Acetate buffer (pH 4.0 to 5.0), cacodylate buffer (pH 5.0 to 6.0), Bis-Tris buffer (pH 6.0 to 7.0), phosphate buffer (pH 7.0 to 8.0), TAPS buffer (pH 8.0 to 9.0), CHES buffer (pH 9.0 to 10.0), and CAPS buffer (pH 10.0 to 11.0) were each prepared and were used for enzyme activity measurement at 30° C. at various pH levels.
The enzyme activity was measured at every increment of 5° C. starting from 5° C. up to 50° C. using cacodylate buffer (pH 5.0).

[2] = Confirmation of neuraminidase activity (long reaction, HPLC); type: biochemical; details: purified enzyme; PA-6′-sialyllactose signal decreased, PA-lactose signal increased with reaction time; FIG. 3-1
Method: In the process described in Example 2(6), the reaction using the purified enzyme solution of the JT-SHIZ-119-derived recombinant β-galactoside-α2,6-sialyltransferase prepared in Example 3 was performed for a long time. The signal of the reaction product (PA-6′-sialyllactose, retention time: 4.02 min) decreased and the signal of the PA-lactose (retention time: 3.73 min), which was the original sugar acceptor substrate, increased in accordance with an increase in reaction time (FIG. 3-1).

[3] = Optimum pH and optimum temperature for neuraminidase activity; type: biochemical; details: purified enzyme
Method: The optimum pH and the optimum temperature for neuraminidase activity of the recombinant β-galactoside-α2,6-sialyltransferase SHIZ119-N1C0 derived from the JT-SHIZ-119 strain were investigated using the purified enzyme prepared in Example 3.
The enzyme activity at various pH levels was measured at 35° C. with the buffer used in Example 4.
The neuraminidase activity was measured at every increment of 5° C. starting from 5° C. up to 50° C. using cacodylate buffer (pH 6.0).

[4] = tested on: JT-SHIZ-119-derived recombinant β-galactoside-α2,6-sialyltransferase N1C0 (neuraminidase activity); experiment: Substrate specificity of neuraminidase activity with PA-sugar chains, HPLC; type: biochemical, Photobacterium leiognathi strain JT-SHIZ-119; details: PA-sugar chains with α2,3-, α2,6- or α2,8-linked sialic acid; 30° C. for 18 hours
Method: The substrate specificity of neuraminidase, that is, the linkage mode of sialic acid to a sugar chain that is cleaved by the neuraminidase can be determined by, but not limited to, a method using a pyridylaminated sugar chain. More specifically, the enzyme reaction by neuraminidase is performed using PA sugar chains in which sialic acid is linked by α2,3-linkage, α2,6-linkage, or α2,8-linkage (for example, pyridylaminated sugar chains such as PA-Sugar Chain 029, PA-Sugar Chain 023, and PA-Sugar Chain 034 available from Takara Bio Inc.). The reaction product is analyzed by high performance liquid chromatography, and the amount of sialic acid that was cleaved is calculated from the retention time and peak area of the reaction product.
To reveal the specificity of the neuraminidase activity of the JT-SHIZ-119-derived recombinant β-galactoside-α2,6-sialyltransferase N1C0, reactions using a PA-sugar chain shown in Table 4, to which sialic acid is linked via α2,3-, α2,6-, or α2,8-linkage (PA-Sugar Chain 029, PA-Sugar Chain 023, or PA-Sugar Chain 034, manufactured by Takara Bio Inc.) as a substrate were performed.
To a purified enzyme solution of the JT-SHIZ-119-derived recombinant β-galactoside-α2,6-sialyltransferase N1C0 (equivalent to 0.6 U as sialyltransferase activity), 1.5 μL of a 10 pmol/μL PA-sugar chain was added, followed by reaction at 30° C. for 18 hours. After completion of the reaction, the reaction solution was treated at 100° C. for 2 minutes to inactivate the enzyme, followed by HPLC to analyze the reaction product. In the case of using PA-Sugar Chain 023 as the substrate, the pyridylaminated sugar chain was eluted and analyzed under the same conditions as those in Example 1. In the case of using PA-Sugar Chain 029 or PA-Sugar Chain 034 as the substrate, the elution was performed using eluent A (100 mM acetate-triethylamine, pH 5.0) and eluent B (100 mM acetate-triethylamine containing 0.5% n-butanol, pH 5.0) with a linear gradient of 0 to 100% eluent B (0 to 35 min), 100% eluent B (35 to 50 min), and then a linear gradient of 100% to 30% eluent B (51 to 75 min). The analysis was performed under the conditions of Example 1. FIGS. 3-2 to 3-8 show the results.

[5] = Sialyltransferase activity of crude enzyme solution (14C CMP-NeuAc transfer to lactose); type: biochemical; details: crude enzyme extraction solution from transformed E. coli; with acceptor (120 mM lactose); 30° C. for 30 minutes; duplicate

B1: SHIZ119-N1C0 (protein)
chain: MCNDNQNTVDVVVSTVNDNVIENNTYQVKPIDTPTTFDSYSWIQTCGTPILKDDEKYSLSFDFVAPELDQDEKFCFEFTGDVDGKRYVTQTNLTVVAPTLEVYVDHASLPSLQQLMKIIQQKNEYSQNERFISWGRIGLTEDNAEKLNAHIYPLAGNNTSQELVDAVIDYADSKNRLNLELNTNTAHSFPNLAPILRIISSKSNILISNINLYDDGSAEYVNLYNWKDTEDKSVKLSDSFLVLKDYFNGISSEKPSGIYGRYNWHQLYNTSYYFLRKDYLTVEPQLHDLREYLGGSLKQMSWDGFSQLSKGDKELFLNIVGFDQEKLQQEYQQSELPNFVFTGTTTWAGGETKEYYAQQQVNVVNNAINETSPYYLGREHDLFFKGHPRGGIINDIILGSFNNMIDIPAKVSFEVLMMTGMLPDTVGGIASSLYFSIPAEKVSFIVFTSSDTITDREDALKSPLVQVMMTLGIVKEKDVLFWSDLPDCSSGVCIAQY
modifications: beta-galacoside-alpha-2,6-sialyltransferase from phorobacterium leiognathi (without signal peptide)
[1]; 30° C., pH 4.0 to 11.0, FIG. 2-1
  pH at which sialyltransferase enzyme activity is the highest (optimum pH): 5.0
[1]; cacodylate buffer (pH 5.0), 5° C. up to 50° C., FIG. 2-2
  temperature at which sialyltransferase enzyme activity is the highest (optimum temperature): 35 °C
[2]
  neuraminidase activity (in words): also has neuraminidase activity
[3]; 35° C., FIG. 4-1
  pH at which neuraminidase activity is the highest (optimum pH): 6.0
[3]; cacodylate buffer (pH 6.0), 5° C. up to 50° C., FIG. 4-2
  temperature at which neuraminidase activity is the highest (optimum temperature): 35 °C
[4]
  specificity of neuraminidase activity (linkage mode): specific to sialic acid of α2,6-linkage
[5]
  Transferred NeuAc: 7786 cpm and 8446 cpm

Reference: patent US20120184016A1, “NOVEL PROTEIN AND GENE THAT CODES THEREFOR” (priority 2009, published 2012)
